Measured values from patent US20240424129A1, “RECOMBINANT FUSION ANTIBODY, AND ANTIBODY-DRUG CONJUGATE AND USE THEREOF” (SUN YAT-SEN UNIVERSITY, priority 2021, published 2024).
Numbering of substitutions follows the chain as printed. Names and notes keep the numbering of the source.

B1: VHH0: non-fused anti-HER2 nanobody VHH-S84C-His6, SEQ ID NO: 32 (protein)
VHH: EVQLVESGGGLVQAGGSLRLSCAASGITFSINTMGWYRQAPGKQRELVALISSIGDTYYADSVKGRFTISRDNAKNTVYLQMNCLKPEDTAVYYCKRFRTAAQGTDYWGQGTQVTVSSHHHHHH
modifications: His6 tag
B2: VHH0-MMAF (conjugate)
VHH: B1 VHH
B3: Fused VHH21-MMAF (conjugate)
VHH: EVQLVESGGGLVQAGGSLRLSCAASGITFSINTMGWYRQAPGKQRELVALISSIGDTYYADSVKGRFTISRDNAKNTVYLQMNCLKPEDTAVYYCKRFRTAAQGTDYWGQGTQVTVSSHHHHHHLPETGGGRRLRKSFHDDSDEDLLHI
B4: Fused VHH22-MMAF (conjugate)
VHH: B3 VHH with L134R
B5: Fused VHH9-MMAF (conjugate)
VHH: EVQLVESGGGLVQAGGSLRLSCAASGITFSINTMGWYRQAPGKQRELVALISSIGDTYYADSVKGRFTISRDNAKNTVYLQMNCLKPEDTAVYYCKRFRTAAQGTDYWGQGTQVTVSSHHHHHHGGGSDEDLLHI
B6: Fused VHH12-MMAF (conjugate)
VHH: EVQLVESGGGLVQAGGSLRLSCAASGITFSINTMGWYRQAPGKQRELVALISSIGDTYYADSVKGRFTISRDNAKNTVYLQMNCLKPEDTAVYYCKRFRTAAQGTDYWGQGTQVTVSSHHHHHHGGGGSGGGGSGGGGSSDEDLLHI
B7: Fused VHH5-MMAF (conjugate)
VHH: EVQLVESGGGLVQAGGSLRLSCAASGITFSINTMGWYRQAPGKQRELVALISSIGDTYYADSVKGRFTISRDNAKNTVYLQMNCLKPEDTAVYYCKRFRTAAQGTDYWGQGTQVTVSSHHHHHHLPETGGGVQNPSADRNLLDL
B8: Fused VHH19-MMAF (conjugate)
VHH: B7 VHH with V132R, Q133R, N134R, P135R, S136K, A137S, R139E, N140D, D143H, L144I
B9: Fused VHH13-MMAF (conjugate)
VHH: B7 VHH with V132S, Q133F, N134H, P135D, S136D, A137S, R139E, N140D, D143H, L144I
B10: Fused VHH1-MMAF (conjugate)
VHH: B7 VHH with V132A, Q133S, N134V, P135S, S136L, A137L, R139D, N140E, L142M, D143S
B11: Fused VHH14-MMAF (conjugate)
VHH: B7 VHH with V132E, Q133E, N134S, P135E, S136E, A137R, R139D, N140H, D143P, L144M
B12: Fused VHH7-MMAF (conjugate)
VHH: EVQLVESGGGLVQAGGSLRLSCAASGITFSINTMGWYRQAPGKQRELVALISSIGDTYYADSVKGRFTISRDNAKNTVYLQMNCLKPEDTAVYYCKRFRTAAQGTDYWGQGTQVTVSSHHHHHHLPETGGGSDEDLLHI
B13: Fused VHH3-MMAF (conjugate)
VHH: EVQLVESGGGLVQAGGSLRLSCAASGITFSINTMGWYRQAPGKQRELVALISSIGDTYYADSVKGRFTISRDNAKNTVYLQMNCLKPEDTAVYYCKRFRTAAQGTDYWGQGTQVTVSSHHHHHHLPETGGGASVSLLDDEL
B14: Fused VHH15-MMAF (conjugate)
VHH: B13 VHH with A132S, S133Y, V134K, S135Y, L136S, L137K, D138V, D139N, E140K, L141E
B15: Fused VHH16-MMAF (conjugate)
VHH: B13 VHH with A132P, S133A, V134A, S135Y, L136R, L137G, D138V, D139G, E140D, L141D
B16: Fused VHH25-MMAF (conjugate)
VHH: EVQLVESGGGLVQAGGSLRLSCAASGITFSINTMGWYRQAPGKQRELVALISSIGDTYYADSVKGRFTISRDNAKNTVYLQMNCLKPEDTAVYYCKRFRTAAQGTDYWGQGTQVTVSSHHHHHHHLPETGGGKHHHAGYEQF
B17: Fused VHH10-MMAF (conjugate)
VHH: EVQLVESGGGLVQAGGSLRLSCAASGITFSINTMGWYRQAPGKQRELVALISSIGDTYYADSVKGRFTISRDNAKNTVYLQMNCLKPEDTAVYYCKRFRTAAQGTDYWGQGTQVTVSSHHHHHHGGGGGSDEDLLHI
B18: Fused VHH11-MMAF (conjugate)
VHH: B17 VHH with G129S
B19: Fused VHH18-MMAF (conjugate)
VHH: EVQLVESGGGLVQAGGSLRLSCAASGITFSINTMGWYRQAPGKQRELVALISSIGDTYYADSVKGRFTISRDNAKNTVYLQMNCLKPEDTAVYYCKRFRTAAQGTDYWGQGTQVTVSSHHHHHHLPETGGGRRLRSDEDLLHI
B20: Fused VHH2-MMAF (conjugate)
VHH: EVQLVESGGGLVQAGGSLRLSCAASGITFSINTMGWYRQAPGKQRELVALISSIGDTYYADSVKGRFTISRDNAKNTVYLQMNCLKPEDTAVYYCKRFRTAAQGTDYWGQGTQVTVSSHHHHHHLPETGGGRRRASVSLLDDELMSL
B21: Fused VHH20-MMAF (conjugate)
VHH: EVQLVESGGGLVQAGGSLRLSCAASGITFSINTMGWYRQAPGKQRELVALISSIGDTYYADSVKGRFTISRDNAKNTVYLQMNCLKPEDTAVYYCKRFRTAAQGTDYWGQGTQVTVSSHHHHHHLPETGGGRRRSFHDDSDEDLLHI
B22: Fused VHH24-MMAF (conjugate)
VHH: EVQLVESGGGLVQAGGSLRLSCAASGITFSINTMGWYRQAPGKQRELVALISSIGDTYYADSVKGRFTISRDNAKNTVYLQMNCLKPEDTAVYYCKRFRTAAQGTDYWGQGTQVTVSSHHHHHHHLPETGGGRRRRKRKRSHAGYQTI
B23: Fused VHH23-MMAF (conjugate)
VHH: EVQLVESGGGLVQAGGSLRLSCAASGITFSINTMGWYRQAPGKQRELVALISSIGDTYYADSVKGRFTISRDNAKNTVYLQMNCLKPEDTAVYYCKRFRTAAQGTDYWGQGTQVTVSSHHHHHHHLPETGGGRKRSHAGYQTI
B24: Fused VHH17-MMAF (conjugate)
VHH: EVQLVESGGGLVQAGGSLRLSCAASGITFSINTMGWYRQAPGKQRELVALISSIGDTYYADSVKGRFTISRDNAKNTVYLQMNCLKPEDTAVYYCKRFRTAAQGTDYWGQGTQVTVSSHHHHHHLPETGGGRRRSDEDLLHI
B25: Fused VHH26-MMAF (conjugate)
VHH: EVQLVESGGGLVQAGGSLRLSCAASGITFSINTMGWYRQAPGKQRELVALISSIGDTYYADSVKGRFTISRDNAKNTVYLQMNCLKPEDTAVYYCKRFRTAAQGTDYWGQGTQVTVSSHHHHHHHLPETGGGRRLRKHHHAGYEQF
B26: Fused VHH4-MMAF (conjugate)
VHH: EVQLVESGGGLVQAGGSLRLSCAASGITFSINTMGWYRQAPGKQRELVALISSIGDTYYADSVKGRFTISRDNAKNTVYLQMNCLKPEDTAVYYCKRFRTAAQGTDYWGQGTQVTVSSHHHHHHHLPETGGGASSGLDDLDLLGK
B27: Fused VHH6-MMAF (conjugate)
VHH: B26 VHH with A133N, S134A, S135L, G136S, L137W, D138L, L140E, D141E, G144C, K145L

tested on: SKBR3 cells; assay: In-vitro cytotoxicity, CCK8 cell viability; format: cell-based, human; settings: SKBR3, 48 h, CCK8
Method: (§1) In this example, human breast cancer cell line SKBR3 with high expression of HER2 and human ovarian cancer cell line SKOV3 with high expression of HER2 were chosen to evaluate the ability of the recombinant-fusion-antibody-drug conjugates to inhibit the growth of cancer cells. The recombinant-fusion-antibody-drug conjugates of different concentrations were added to a 96-well plate seeded with SKBR3 or SKOV3 cells. After treatment for 48 h, the viability of cells was calculated using a CCK8 kit.
Cell viability was measured using different concentrations of MMAF, VHH0-MMAF, or different recombinant-fusion-nanobody-drug conjugates (fused VHH1-MMAF to fused VHH26-MMAF). The half-maximal inhibitory concentration IC50 was calculated (FIGS. 14A-14C, and Table 7). FIGS. 14A, 14B and 14C respectively show the viability of SKBR3 cells treated with the recombinant-fusion-nanobody-drug conjugates, including fused VHH1-MMAF to fused VHH6-MMAF, fused VHH7-MMAF to fused VHH22-MMAF, and fused VHH23-MMAF to fused VHH26-MMAF. […] Data are expressed as the mean (n=3).
SKBR3 and SKOV3 cells were chosen to evaluate the ability of the recombinant-fusion-full-length-antibody-drug conjugates to inhibit the growth of cancer cells. […] The half-maximal inhibitory concentration IC50 was calculated.

Row | Molecule | viability of the treated cells | maximal killing
1 | B1 | approximately 100% | –
2 | B2 | – | about 50%

same assay, conditions: SKBR3, 48 h, CCK8, mean n=3; Table 7

Row | Molecule | IC50
3 | B3 | 0.016 nM
4 | B4 | 0.014 nM
5 | B5 | 0.294 nM
6 | B6 | 0.14 nM
7 | B7 | 0.791 nM
8 | B8 | 0.564 nM
9 | B9 | 0.0798 nM
10 | B10 | 1.34 nM
11 | B11 | 0.069 nM
12 | B12 | 0.336 nM
13 | B13 | 0.109 nM
14 | B14 | 0.051 nM
15 | B15 | 0.027 nM
16 | B16 | 0.466 nM
17 | B17 | 0.232 nM
18 | B18 | 0.16 nM
19 | B19 | 0.394 nM
20 | B2 | 1.57 nM
21 | B20 | 0.126 nM
22 | B21 | 0.038 nM
23 | B22 | 0.128 nM
24 | B23 | 0.098 nM
25 | B24 | 0.165 nM
26 | B25 | 0.095 nM
27 | B26 | 0.885 nM
28 | B27 | 0.791 nM

tested on: MDA-MB-231 cells; assay: In-vitro cytotoxicity, HER2-negative negative control; format: cell-based, human; settings: MDA-MB-231, FIG. 15
Method: as §1
In addition, in this example, the HER2-negative MDA-MB-231 cells were chosen as a negative control to compare the ability of fused VHH7-MMAF, fused VHH8-MMAF, VHH0-MMAF, VHH0, and MMAF to inhibit the growth of cancer cells.

Row | Molecule | cytotoxicity in HER2-negative cells
29 | B12 | none of the substances are cytotoxic
30 | B1 | none of the substances are cytotoxic
31 | B2 | none of the substances are cytotoxic
